Experimental data published in patent US20210198377A1 (XDCEXPLORER SHANGHAI, published 2021).
Changes are numbered by the printed parent chain. Each block holds one binder with its values, some of them ahead of it.

Columns and labels:
[1] = target: T1, cynomolgus monkey TPBG (full length, on cells) (cynomolgus monkey, UniProt Q4R8Y9 35-420); assay: FACS on CHO-K1-cTPBG cells
T1 construct: whole, on cells; On transfected CHO-K1 cells; also called cTPBG; CHO-K1-cTPBG
T1 sequence (looked up): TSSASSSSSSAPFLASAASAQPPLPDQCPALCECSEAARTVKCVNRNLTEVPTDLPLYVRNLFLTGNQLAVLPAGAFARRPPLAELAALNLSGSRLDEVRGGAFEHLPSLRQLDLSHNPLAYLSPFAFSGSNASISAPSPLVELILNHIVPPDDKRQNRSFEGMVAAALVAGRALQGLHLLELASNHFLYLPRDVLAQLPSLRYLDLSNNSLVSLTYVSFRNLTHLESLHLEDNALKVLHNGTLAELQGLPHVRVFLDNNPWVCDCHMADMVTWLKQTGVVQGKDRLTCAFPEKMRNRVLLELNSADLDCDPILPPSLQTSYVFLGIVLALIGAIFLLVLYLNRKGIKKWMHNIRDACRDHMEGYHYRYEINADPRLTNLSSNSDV
From the text: The stable cell lines CHO-k1-hTPBG, CHO-k1-cTPBG, CHO-k1-mTPBG (i.e. the CHO-k1-hTPBG 3A2F1, CHO-k1-cTPBG 3F13G4 and CHO-k1-mTPBG 3A3 shown in table 7) and CHO-K1 cells were expanded to a 90% of confluency in T-75 cell culture flasks, the culture medium were removed, and cells were then rinsed twice with HBSS buffer (Hanks Balanced Salt Solution, purchased from Invitrogen) and lysed with enzyme-free cell dissociation buffer (Versene solution purchased from Life technology) and harvested. Harvested cells were rinsed with HBSS buffer twice and counted before diluting with HBSS buffer to 2×10⁶ cells /mL, and 10% goat serum blocking buffer was then added, wherein the percentage is the mass percentage. Cells were incubated on ice for 30 min, and then washed twice with HBSS buffer by centrifugation. The harvested cells were resuspended with FACS buffer (HBSS+1% BSA, wherein the percentage is mass percentage) to a concentration of 2×10⁶ cells /mL. 100 μL per well of the cells was aliquoted to 96-well FACS reaction plates, and 100 μL per well of test sample—the purified TPBG antibody obtaining from Embodiment 2 was added before incubating on ice for 2 h. The plate was washed with the FACS buffer twice by centrifugation, and 100 μL per well of fluorescence (Alexa 488) labeled secondary antibody (purchased from Invitrogen) was then added and incubated on ice for 1 h. The plate was washed with the FACS buffer for three times by centrifugation, follow by resuspending in 100 μL of fixation buffer (4% (v/v) paraformaldehyde). Cells were washed with FACS buffer twice after 10 min, follow by resuspending with 100 μL of FACS buffer. The results were measured and analyzed by FACS (FACS Calibur, purchased from BD). Data analysis was performed by software (CellQuest) to obtain mean fluorescence intensity (MFI) of the cells, follow by calculating EC50 value by software (GraphPad Prism) analysis and data fitting. The analysis results were shown in Table 8 and FIGS. 7-10, and data in FIGS. 7-10 show the mean fluorescence intensity (MFI) of cells.

[2] = target: T2, biotinylated recombinant TPBG protein (Homo sapiens (Human), UniProt Q13641 32-355, Biotinylated; the number and positions of the biotin labels are not stated and the letters do not carry them.); assay: competitive ELISA; row antibody 5 ug/mL; competitor: coated 28D4E6A9
T2 sequence: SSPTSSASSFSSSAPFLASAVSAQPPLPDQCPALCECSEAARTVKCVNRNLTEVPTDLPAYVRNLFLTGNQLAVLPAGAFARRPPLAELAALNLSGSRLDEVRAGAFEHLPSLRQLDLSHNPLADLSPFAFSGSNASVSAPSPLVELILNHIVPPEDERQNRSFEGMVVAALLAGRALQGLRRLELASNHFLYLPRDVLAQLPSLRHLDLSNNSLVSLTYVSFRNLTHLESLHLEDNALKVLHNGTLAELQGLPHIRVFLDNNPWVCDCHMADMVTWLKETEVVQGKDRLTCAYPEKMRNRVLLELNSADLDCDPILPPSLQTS
Method: The purified antibodies to be tested were diluted to 1 μg/mL using PBS, and coated with high-adsorption of 96-well microplates at […]. After overnight coating at 4[…], 250 μL of blocking buffer (PBS containing 0.01% (v/v) Tween20 and 1% (w/w) BSA) was added to block coating at room temperature for 1 h, and 0.05 μg/mL of biotinylated recombinant TPBG protein was added to each well. Meanwhile, 5 μg/mL final concentration of competitive antibodies, i.e. the purified antibodies obtained from Embodiment 2 with the clone number of 12B12C7C3, 5G4H10G5, 37H9C5G2, 39A11G5F2, 52C9E9F6, 28D4E6A9, 36A10D8B12, 99E12C7H1, 103E2E9C2 and 106D5G3D10 were added and incubated at 25-37° C. for 1-2 h. The plates were washed three times with plate-washing buffer (PBS containing 0.01% (v/v) Tween20) and HRP (horseradish peroxidase)-labeled streptavidin (purchased from Sigma) was added. After incubating at 37° C. for 0.5 h, the plates were washed three times with plate-washing buffer (PBS containing 0.01% (v/v) Tween20), and 100 μL of TMB substrate was added to each well and the plates were further incubated at room temperature for 30 min prior to adding 100 μL of stop buffer (1.0N HCl) to each well. A₄₅₀ₙₘ values were read using an ELISA microplate reader (SpectraMax 384plus purchased from Molecular Device) and results were shown in FIG. 6. The higher the values of the competition rate, the closer the antigen surface of the two antibodies are.

EC50 [1]: 0.25 nM
competition rate [2]: 96%
B1: 28D4E6A9 (antibody, V domains shown)
VH: DVQLVESGGGLVRPGGSLKLSCAASGFTFSNYVMSWARQSPEKRLEWVAEISTGGSHTYYSDTVTGRFTISRDNAKKALYLEMSSLRSEDTAIYYCIMFYYGSSYSMDYWGQGTSVTVSS
VL: DIQMTQSTSSLSASLGDRITISCRASQDIRNYLNWYQQKPDGTVKLLIYHTSRLHSGVPSRFSGSGSGTDYSLTISNLEQEDIATYFCQQGDTLPLTFGAGTRLELK
notes: Mouse hybridoma antibody purified from culture supernatant; also called TPBG antibody; lead antibody

EC50 [1]: 0.62 nM
competition rate [2]: 58%
B2: 37H9C5G2 (antibody, V domains shown)
VH: QVQLQQSDAELVRPGASVKMSCKVSGYTFTDHTIHWMKQRPEQGLEWIGYIYPRDGSGTYNEKFKGKATLTADKSSSTAYMQLNSLTSEDSAVYFCARDGSSHYWYFDVWGTGTTVTVSS
VL: DIQMTQSPASLSASVGETVTITCRASEIIYNYLAWYQQKQGKSPQLLVYNAKTLAEGVPSRFSGSYSGTQFSLNINSLQSEDFGIYYCQHHHDTPLTFGAGTKLDLK
notes: as for B1

EC50 [1]: 2.29 nM
competition rate [2]: 38%
B3: 99E12C7H1 (antibody, V domains shown)
VH: QIQLVQSGPELKKPGETVKISCKPSGYTFTAYGLSWVKQAPGQGFQWMGWINTYSGVPTYTDDFKGRFAFSLETSAGTASLQITNLKNEDTATYFCARSSIPPFEYWGPGTTLTVSS
VL: SFVMTQSPKFLLVSVGDRVTITCKASQSVSNDVAWYQQKPGQPPRVLIYFASNRYTGVPDRFTGSGYGTDFTFTISTVQAEDLALYFCQQDYSSPWTFGGGTKLEIK
notes: as for B1

EC50 [1]: 0.59 nM
competition rate [2]: 74%
B4: 12B12C7C3 (antibody, V domains shown)
VH: DVQLVESGGGLVQPGGSRKLSCAASGFTFSNFGMHWVRQAPEKGLEWVAYISSGSTSFYYADTVKGRFTISRDNPKNTLFLQMTSLRSEDTAMYYCSRTNSLLRGFFDAWGAGTTVTVSS
VL: DIVLTQSPASLAVSLGQRATISCRASQSVSSSSYTYLHWYQQKPGQPPKLLIKSASNLESGVPARFSGTGSGTDFTLNIHPVEEEDTATYYCQHSWEIPLTFGAGTKLELK
notes: as for B1

EC50 [1]: 0.84 nM
competition rate [2]: -1%
B5: 5G4H10G5 (antibody, V domains shown)
VH: EVQLVESGGDLVQPGGSLKLFCAASGFTFSTYGLSWVRQTPDKRLELVATITNNDGSAYYPDSVKGRFTISRDKAKNTLFLQMTSLKSEDTAMYYCARETGFGSSYLFDYWGQGTLVTVSA
VL: NIVMTQTPKFLLVSAGDRVTITCKASQSVSNDVAWYQQKPGQSPKLLIYFATNRYTGVPNRFTGSGYGTEFTFTISSVQAEDLAVYFCQQDYSSPTFGGGTKLEIK
notes: as for B1

EC50 [1]: 1.26 nM
competition rate [2]: 1%
B6: 106D5G3D10 (antibody, V domains shown)
VH: EVQLVESGGGLVKPGGSLKLSCAASGFTFSDYGMHWVRQAPEKGLEWVGYISSGTYVVYYADTVKGRFTISRDNAKNTLFLQMTSLRSEDTAIYYCSTYGSNPFDYWGQGTTLTVSS
VL: QLVLTQSPAIMSASPGEKVTITCSATSSVSSMHWFQQKPVTSPKLWIYSTSNLASGVPTRFSGSGSGTSYSLTISRMEAEDAATYYCQQRSGYPPIFTFGSGTKLEIK
notes: as for B1

EC50 [1]: 0.83 nM
competition rate [2]: 95%
B7: 103E2E9C2 (antibody, V domains shown)
VH: EVQLQQSGPVLVKPGASVKMSCEASGYSFIDYYMSWVKQSRGRSLEWIGVFNPYSGEIIYNQKFKGKATLTVDKSSSTAYMELSSLTSEDSGVYSCARLRISYYAIDYWGQGTSVAVSS
VL: ENVLTQSPAIMSASPGEKVTMTCRATSSVSSGHFHWYQQKSGASPKVWIYSTSNLASGVPARFSGSGSGTSFSLTISSVEAEDVATYFCQQYSGYPLTFGGGTKLEIK
notes: as for B1

EC50 [1]: 1.35 nM
competition rate [2]: 0%
B8: 39A11G5F2 (antibody, V domains shown)
VH: QVQLQQSGAELMKPGASMRLSCKATGYTFTGYWLEWIKRRPGHGLEWIGEILPGRGSTNYNEKFKGKATFTAETSSNTAYMQLTSLTTEDSAIYYCARGGRDFDNWGQGTTLTVSS
VL: DIQMTQSTSSLSASLGDRVTISCSASQGINNHLNWYQQKPDGTVKLLIYYTSSLHSGVPSRFSGSGSGTDYSLTISNLEPEDIAIYYCQQFSKLPYTFGGGTKVEMK
notes: as for B1

EC50 [1]: 1.54 nM
competition rate [2]: 17%
B9: 52C9E9F6 (antibody, V domains shown)
VH: QVQLQQSGAELMKPGASVKLSCKATGYTFTGYWIEWIKQRPGHGLEWIGEILPGRGSTDYNEKFKGKATFTADTSSNTAYMQLSSLTTEDSAIYYCTRGRLDFTYWGQGTLVTVSA
VL: B8 VL with S7T, N30R, H32Y, I85T, F91Y, L94V, Y96W, V104L, M106I
notes: as for B1

EC50 [1]: 0.6 nM
competition rate [2]: 86%
B10: 36A10D8B12 (antibody, V domains shown)
VH: DVQLQESGPGMVKPSQSLSLTCTVTGYSITSGYDWHWIRHFPGNKLEWMGYISYSGNTNYNPSLKSRISITHNTSKNHFFLRLNSVTTEDTATYYCARGYGNWDAMDYWGQGTSVTVSS
VL: DIVMTQSQKFMSTSVGDRVSVTCKASQIVDTNVAWYQQKPGQSPKALISSASYRYSGVPDRFTGSGSGTDFTLTISNVQSEDLAEYFCQQYNSYPLTFGAGTKLELT
notes: as for B1
